This experiment addresses T1, GST-KBP (Kinesin-Binding Protein) (human, UniProt Q96EK5 1-621).
T1 sequence (looked up): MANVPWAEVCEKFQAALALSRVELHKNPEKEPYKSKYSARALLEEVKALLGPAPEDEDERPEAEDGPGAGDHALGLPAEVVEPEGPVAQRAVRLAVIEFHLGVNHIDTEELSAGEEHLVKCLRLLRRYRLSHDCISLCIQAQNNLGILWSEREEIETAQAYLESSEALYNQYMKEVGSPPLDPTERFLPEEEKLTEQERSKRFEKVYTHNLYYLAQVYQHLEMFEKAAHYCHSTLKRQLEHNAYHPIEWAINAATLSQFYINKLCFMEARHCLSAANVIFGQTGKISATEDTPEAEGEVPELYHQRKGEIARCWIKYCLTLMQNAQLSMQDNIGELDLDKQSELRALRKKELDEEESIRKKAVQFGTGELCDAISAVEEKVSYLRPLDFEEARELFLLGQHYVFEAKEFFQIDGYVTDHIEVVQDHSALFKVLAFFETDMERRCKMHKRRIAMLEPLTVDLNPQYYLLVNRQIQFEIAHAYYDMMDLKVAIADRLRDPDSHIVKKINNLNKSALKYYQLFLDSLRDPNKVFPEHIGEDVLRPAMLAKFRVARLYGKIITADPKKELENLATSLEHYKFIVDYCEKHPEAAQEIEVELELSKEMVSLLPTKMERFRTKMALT
Nature of the experiment: pull-down.

B1: KIF18A-N480-GFP-His6 (domain or fragment, human, UniProt Q8NI77 1-480, looked up)
chain: MSVTEEDLCHHMKVVVRVRPENTKEKAAGFHKVVHVVDKHILVFDPKQEEVSFFHGKKTTNQNVIKKQNKDLKFVFDAVFDETSTQSEVFEHTTKPILRSFLNGYNCTVLAYGATGAGKTHTMLGSADEPGVMYLTMLHLYKCMDEIKEEKICSTAVSYLEVYNEQIRDLLVNSGPLAVREDTQKGVVVHGLTLHQPKSSEEILHLLDNGNKNRTQHPTDMNATSSRSHAVFQIYLRQQDKTASINQNVRIAKMSLIDLAGSERASTSGAKGTRFVEGTNINRSLLALGNVINALADSKRKNQHIPYRNSKLTRLLKDSLGGNCQTIMIAAVSPSSVFYDDTYNTLKYANRAKDIKSSLKSNVLNVNNHITQYVKICNEQKAEILLLKEKLKAYEEQKAFTNENDQAKLMISNPQEKEIERFQEILNCLFQNREEIRQEYLKLEMLLKENELKSFYQQQCHKQIEMMCSEDKVEKATGKR
For the molecule B1, the binding result is recorded as “binds”.

B2: His6-KIF15-N420 (domain or fragment, human, UniProt Q9NS87 1-420, looked up)
chain: MAPGCKTELRSVTNGQSNQPSNEGDAIKVFVRIRPPAERSGSADGEQNLCLSVLSSTSLRLHSNPEPKTFTFDHVADVDTTQESVFATVAKSIVESCMSGYNGTIFAYGQTGSGKTFTMMGPSESDNFSHNLRGVIPRSFEYLFSLIDREKEKAGAGKSFLCKCSFIEIYNEQIYDLLDSASAGLYLREHIKKGVFVVGAVEQVVTSAAEAYQVLSGGWRNRRVASTSMNRESSRSHAVFTITIESMEKSNEIVNIRTSLLNLVDLAGSERQKDTHAEGMRLKEAGNINRSLSCLGQVITALVDVGNGKQRHVCYRDSKLTFLLRDSLGGNAKTAIIANVHPGSRCFGETLSTLNFAQRAKLIKNKAVVNEDTQGNVSQLQAEVKRLKEQLAELASGQTPPESFLTRDKKKTNYMEYFQE
As for B2, the binding result is “binds”.
